From US20230106715A1 (BIOSION, published 2023)
Residue numbers refer to the chain shown, from its start.

T1: recombinant human Siglec15-his protein (human, UniProt Q6ZMC9 20-263)
T1 construct: In house made; Biotin-labeled in the capture ELISA
T1 sequence: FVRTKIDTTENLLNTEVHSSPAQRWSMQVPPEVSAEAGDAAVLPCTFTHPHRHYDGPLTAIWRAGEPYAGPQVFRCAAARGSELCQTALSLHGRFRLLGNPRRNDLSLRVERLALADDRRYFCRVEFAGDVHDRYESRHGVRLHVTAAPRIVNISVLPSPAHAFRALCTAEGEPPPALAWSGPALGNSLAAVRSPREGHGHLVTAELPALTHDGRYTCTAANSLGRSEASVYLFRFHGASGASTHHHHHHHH

B1: anti-Siglec15 benchmark (ch5G12) (antibody, human IgG1, kappa, V domains shown)
VH: QVQLQQPGAELVKPGASVKMSCKASGYTFTSYWITWVIQRPGQGLEWIGDIYCGSDTMHYNEKFKNKATLTVDTSSSTAYMQLSSLTSEDSAVYYCARWWDYGSSYDYFDYWGQGTTLTVSS
VL: DIKMTQSPSSMYASLGERVTITCKASQDINSYLSWFQQKPGKSPKTLIYRANRLVDGVPSRFSGSGSGQDYSLTISSLEYEDMGIYYCLQYDEFPYTFGGGTKLEIKR
notes: ch5G12 (US 20190202912A1); also called BM; Siglec15-ch5G9
B2: B2D7H7A3C1 (antibody, V domains shown)
VH: QVQLQQSGAELVRPGTSVQMSCKAAGYTFTNYWIGWVKQRPGHGLEWVGDIHPGINYTNNNEKFRGKATLTADTSSNTAYMQLRGLTSDDSAIYYCARVDYDYDGSYIMDYWGQGTSVTVSS
VL: QIVLSQSPALLSASPGEKVTMTCRASSSVSYMYWYQQKPGSSPKPWIYATSNLTSGVPARFSGSGSGTSYSLTISRVEAEDAATYFCQQWNSKPWTFGGGSKLEIR
notes: Mouse monoclonal antibody from hybridoma; also called mouse B2D7H7A3C1
B3: B2G12H3E8 (antibody, V domains shown)
VH: B2 VH with Q5K, A25V, N77S
VL: B2 VL
notes: Mouse monoclonal antibody from hybridoma; also called mouse B2G12H3E8
B4: B2H2H1H7 (antibody, V domains shown)
VH: B2 VH with N77S
VL: B2 VL with V3I, K102R
notes: Mouse monoclonal antibody from hybridoma; also called mouse B2H2H1H7; B2H2H1A7
B5: A2A5C7E8 (antibody, V domains shown)
VH: EVQLVQSGAEVKKPGESLRISCKGSGYSFTTYWISWVRQMPGKGLEWMGLIDPSDSYTNYSPSFQGHVTISTDKSISTAYLQWSSLKASDTAMYYCARGGYYGSEEDYWGQGTLVTVSS
VL: EIVLTQSPGTLSLSPGERATLSCRASQSVSSSRLAWFQQKSGQAPRLLIFDASSRATGIPDRFSGSGSGTDFTLTISRLEPEDFAVYYCQQYGSSPRTFGQGTKVEFK
notes: Fully human antibody from transgenic mouse hybridoma; also called A2A5C7E8-1
B6: A2A5C7E8-2 (antibody, human IgG1, kappa, V domains shown)
VH: B5 VH with D55E
VL: EIVLTQSPGTLSLSPGERATLSCRASQSVSSSRLAWFQQKSGQAPRLLIFDASSRATGIPDRFSGSGSGTDFTLTISRLEPEDFAVYYCQQYGSSPRTFGQGTKVEFKR
notes: Variant of A2A5C7E8 modified in VH CDR2 (X1 = E)
B7: A2A5C7E8-3 (antibody, human IgG1, kappa, V domains shown)
VH: B5 VH with Q65K
VL: B6 VL
notes: Variant of A2A5C7E8 modified in VH CDR2 (X2 = K)

The binders below were run against T2, human Siglec15-Fc protein (human) (assay: competitive ELISA: biotin-labeled human Siglec15-Fc in solution, competitor coated benchmark).
T2 construct: In house made; also called recombinant human Siglec15 protein with human IgG1 Fc at the C-terminus
T2 sequence (chain, as listed by the source limits assumed): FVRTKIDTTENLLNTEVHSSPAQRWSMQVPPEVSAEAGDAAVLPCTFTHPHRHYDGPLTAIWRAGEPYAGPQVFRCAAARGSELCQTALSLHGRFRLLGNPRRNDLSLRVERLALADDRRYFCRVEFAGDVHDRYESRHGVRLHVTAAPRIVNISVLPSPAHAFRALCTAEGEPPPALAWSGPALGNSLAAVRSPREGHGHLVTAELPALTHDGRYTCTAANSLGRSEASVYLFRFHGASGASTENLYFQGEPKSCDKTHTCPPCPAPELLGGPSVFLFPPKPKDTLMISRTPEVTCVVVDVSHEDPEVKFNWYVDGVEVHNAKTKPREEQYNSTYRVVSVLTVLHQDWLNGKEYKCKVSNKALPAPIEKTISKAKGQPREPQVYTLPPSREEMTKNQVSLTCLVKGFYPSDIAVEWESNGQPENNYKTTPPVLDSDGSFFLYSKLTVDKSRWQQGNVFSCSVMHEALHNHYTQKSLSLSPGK
Description: The abilities of the anti-Siglec15 antibodies of the disclosure to block benchmark-human Siglec15 binding were measured in a competitive ELISA assay. Briefly, the benchmark was coated on 96-well micro plates at 2 μg/mL in PBS, 100 μl per well, and incubated for 2 hours at 37° C. Then plates were washed once with wash buffer, and blocked with 5% w/v non-fatty milk in PBST overnight at 4° C. The next day, the anti-Siglec15 antibodies of the disclosure or controls were diluted with biotin labeled human Siglec15-Fc protein (prepared in-house with SEQ ID NO: 19, 37 ng/ml in PBST with 2.5% w/v non-fatty milk), starting at 80 nM with a 4-fold serial dilution, and incubated at room temperature for 40 minutes. After plate washing 4 times, the antibody/Siglec15-Fc mixtures were added to benchmark coated plates, 100 μl per well. After incubation at 37° C. for 40 minutes, plates were washed 4 times again using wash buffer. Then the plates were added and incubated with 100 μl/well streptavidin conjugated HRP for 40 minutes at 37° C. Plates were washed again using wash buffer. Finally, TMB was added and the reaction was stopped using 1M H₂SO₄, and the absorbance of each well was read on a microplate reader using dual wavelength mode with 450 nm for TMB and 630 nm as the reference wavelength, then the OD (450-630) values were plotted against antibody concentration. Data was analyzed using Graphpad Prism software and IC₅₀ values were reported.
The mouse anti-Siglec15 antibodies of the disclosure were also tested in ligand blocking ELISA and benchmark blocking ELISA following the protocols described above.

Point of comparison: B2, IC50 0.081 nM. Against it:
- B1 — 5.5-fold higher, 0.447 nM
- B3 — within 1.5-fold, 0.063 nM
- B4 — within 1.5-fold, 0.0642 nM

These binders were tested against T1, recombinant human Siglec15-his protein (assay: capture ELISA, captured antibody, biotin-labeled human Siglec15-his in solution).
Description: (§1) Briefly, 96-well plates were coated with 100 μl of 2 μg/ml AffiniPure Goat Anti-Human IgG F(ab′)₂ fragment specific (Jackson Immuno Research, Cat #109-005-097) in PBS for 2 hours at 37° C. Plates were washed once with wash buffer (PBS+0.05% v/v Tween-20, PBST) and then blocked with 200 μl blocking buffer (5% w/v non-fatty milk in PBST) overnight at 4° C. Plates were washed 4 times and respectively incubated with 100 μl serially diluted anti-Siglec15 antibodies of the disclosure, the benchmark and hIgG (human immunoglobulin (pH4) for intravenous injection, Hualan Biological Engineering Inc.), 5-fold dilution in 2.5% w/v non-fatty milk in PBST starting at 66.7 nM, for 40 minutes at 37° C., and then washed 4 times again. Plates containing captured antibodies were incubated with 100 μl biotin-labeled human Siglec15-his protein (in house made with SEQ ID NO: 20, 145 ng/ml in 2.5% w/v non-fatty milk in PBST) for 40 minutes at 37° C., washed 4 times, and incubated with streptavidin conjugated HRP (1:10000 dilution in PBST, Jackson Immuno Research, Cat #016-030-084, 100 μl/well) for 40 minutes at 37° C. After a final wash, plates were incubated with 100 μl/well ELISA substrate TMB (Innoreagents, Cat #TMB-S-002). The reaction was stopped in 4 minutes at room temperature with 50 μl/well 1M H₂SO₄, and the absorbance of each well was read on a microplate reader using dual wavelength mode with 450 nm for TMB and 630 nm as the reference wavelength, then the OD (450-630) values were plotted against antibody concentration. Data was analyzed using Graphpad Prism software and EC₅₀ values were reported.

Point of comparison: B6, EC50 0.502 nM. Against it:
- B1 — 3.6-fold higher, 1.79 nM
- B5 — 5.9-fold lower, 0.0848 nM
- B7 — 5.6-fold lower, 0.0902 nM

Each binder was assayed against T2, human Siglec15-Fc protein (assay: competitive ELISA: coated human Siglec15-Fc, blocked ligand biotin-labeled human LRRC4C-Fc).
Description: Serially diluted anti-Siglec15 antibodies or the controls (starting at 66.67 nM with a 5-fold serial dilution) in PBST with 2.5% w/v non-fatty milk were added to the Siglec15-Fc bound plates, 100 μl per well, and incubated with the human Siglec15-Fc protein at 37° C. for 40 minutes. Plates were washed 4 times again using wash buffer, then added and incubated for 40 minutes at 37° C. with 100 μl/well 290 ng/ml biotin-labeled human LRRC4C-Fc protein (prepared in-house with SEQ ID NO: 23). Plates were washed again using wash buffer. Thereafter, the plates were added with 100 μl/well streptavidin conjugated HRP (1:5000 dilution in PBST buffer, Jackson Immunoresearch, Cat #016-030-084) and incubated for 40 minutes at 37° C. Plates were washed again using wash buffer. Finally, TMB was added and the reaction was stopped using 1M H₂SO₄, and the absorbance of each well was read on a microplate reader using dual wavelength mode with 450 nm for TMB and 630 nm as the reference wavelength, then the OD (450-630) values were plotted against antibody concentration. Data was analyzed using Graphpad Prism software and IC₅₀ values were reported.

Point of comparison: B7, IC50 0.546 nM. Against it:
- B1 — within 1.5-fold, 0.674 nM
- B5 — within 1.5-fold, 0.394 nM
- B6 — within 1.5-fold, 0.446 nM

Target: T1, recombinant human Siglec15-his protein
Experiment: capture ELISA, captured antibody, biotin-labeled human Siglec15-his in solution
Remark: another data set of the same source
Description: as §1

Point of comparison: B3, EC50 0.0859 nM. Against it:
- B1 — 19-fold higher, 1.64 nM
- B2 — within 1.5-fold, 0.101 nM
- B4 — within 1.5-fold, 0.0937 nM
